Values joined by “and” are separate entries in the source; they are usually repeats but may differ in a detail not shown here. Equal values may be shown once.

The conditions of the series: Salmonella typhimurium (strain LT2 / SGSC1412 / ATCC 700720), pH 7.8, 25 °C, Urea, CD, Potassium phosphate 10 mM, reversible: yes, whole UniProt chain shown.

B1: Tryptophan synthase alpha chain wild type, P00929 (protein)
chain: MERYENLFAQLNDRREGAFVPFVTLGDPGIEQSLKIIDTLIDAGADALELGVPFSDPLADGPTIQNANLRAFAAGVTPAQCFEMLALIREKHPTIPIGLLMYANLVFNNGIDAFYARCEQVGVDSVLVADVPVEESAPFRQAALRHNIAPIFICPPNADDDLLRQVASYGRGYTYLLSRSGVTGAENRGALPLHHLIEKLKEYHAAPALQGFGISSPEQVSAAVRAGAAGAISGSAIVKIIEKNLASPKQMLAELRSFVSAMKAASRA
With B1, the unfolding free energy was 13.2 kcal/mol. Where the note is “transition: 3”, the denaturant m value was 2.68 kcal/mol/M and 1.6 kcal/mol/M; the “denaturant midpoint (higher = more stable)” value was 2.75 M and 3.64 M; the unfolding free energy is 7.35 kcal/mol and 5.81 kcal/mol.

(Values after FireProtDB (doi:10.1021/bi00123a002).)
